# Results as given in US12570698B2, “Stabilized peptides for covalent binding to target protein” (Dana-Farber Cancer Institute, Inc., priority 2015, dated 2026).
# Bridge positions count the residues as written; N and C are the ends. Square brackets hold non-standard residues; d marks the D form. Ends that are not written are not given here. S5 = C=CCCC[C@](C)(N)C(=O)O
# Legend:
# Bfl-1 = target: T1, Bfl-1 (Homo sapiens, UniProt Q16548); test: Competitive binding assay after pre-forming the Bfl-1:NOXA disulfide bond; conditions: Bfl-1:NOXA disulfide bond pre-formed
# T1 sequence (Q16548 1-175): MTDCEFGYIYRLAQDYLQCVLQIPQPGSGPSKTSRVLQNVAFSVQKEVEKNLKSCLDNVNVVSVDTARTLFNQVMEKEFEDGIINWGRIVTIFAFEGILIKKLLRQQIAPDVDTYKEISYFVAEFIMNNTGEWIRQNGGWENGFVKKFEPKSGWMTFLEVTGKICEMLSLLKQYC
# Method: The functional impact of the Bfl-1:NOXA disulfide bond formation was evaluated using competitive binding assays and liposomal release assays.
# GST-MCL-1ΔNΔC = target: T2, GST-MCL-1ΔNΔC (Homo sapiens, UniProt Q07820); test: Streptavidin pull-down from anti-apoptotic protein mixture; format: binding; conditions: 1:1:1:1 mixture, 1 μM each, biotinylated SAHBs
# T2 construct: MCL-1ΔNΔC (aa 170-327) and BCL-XLΔC (aa 1-212) constructs were cloned into pGEX-4T-1; made in house; host or cells: Escherichia coli BL21(DE3)
# Description: We next explored how conversion of NOXA and BIM SAHBs to BFL-1 C55-reactive agents influenced the balance between noncovalent and covalent SAHB interactions in the context of an anti-apoptotic protein mixture. First, we generated recombinant MCL-1ΔNΔC, BCL-XLΔC and BFL-1ΔC proteins with differential N-terminal tags (GST, tagless, and His, respectively) so that each could be readily identified upon gel electrophoresis and silver stain (FIG. 13A-B).
# Streptavidin Pull-down: Recombinant His-BFL-1ΔC, BCL-XLΔC (tagless) and GST-MCL-1ΔNΔC (1 μM each) were combined and reduced with 3 mM DTT in PBS for 30 min at RT, and then incubated with 1 μM biotinylated SAHBA, SAHBA-3 or vehicle for 4 h at RT. The mixtures were then combined with PBS-washed high-capacity SA agarose (Thermo Fisher Pierce) and incubated with rotation for 2 h at RT. The beads were centrifuged at 3000 rpm, washed twice with NP-40 lysis buffer (1% NP40, 50 mM Tris pH 8.0, 100 mM NaCl, 2.5 mM MgCl2), once with PBS, and then bound protein eluted by boiling in 10% SDS containing 10 mg/mL biotin. Inputs (10%) and eluates were electrophoresed on a 12% Bis-Tris gel and then subjected to silver stain and imaging.
# T2 sequence (Q07820 170-327, stated change not applied): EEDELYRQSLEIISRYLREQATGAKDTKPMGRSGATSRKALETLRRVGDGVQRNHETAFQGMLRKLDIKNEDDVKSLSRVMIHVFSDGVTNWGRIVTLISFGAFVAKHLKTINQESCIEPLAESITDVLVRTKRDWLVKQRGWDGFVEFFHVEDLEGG
substance,measurement,setting,value
"NOXA SAHBA: stapled NOXA BH3 (aa 19-43) peptide, i, i+4 all-hydrocarbon staple substituting R31 and K35; SEQ ID NO:124 (AELEVECATQLR[S5]FGD[S5]LNFRQKLL; staple 13-17; not fully specified)",availability of the Bfl-1 binding pocket to another FITC BH3 domain,Bfl-1,significantly decreased the availability of the Bfl-1 binding pocket
same,MCL-1ΔNΔC capture in SA pull-down,GST-MCL-1ΔNΔC,prominent non-covalent capture of MCL-1ΔNΔC
